Source: US20230106715A1 (BIOSION, published 2023)
Numbering of substitutions follows the chain as printed. One block for each binder: values may come before it.

Legend:
[1] = target: T1, mouse Siglec15-his protein (mouse); experiment: indirect ELISA on coated mouse Siglec15-his
T1 construct: In house made
T1 chain: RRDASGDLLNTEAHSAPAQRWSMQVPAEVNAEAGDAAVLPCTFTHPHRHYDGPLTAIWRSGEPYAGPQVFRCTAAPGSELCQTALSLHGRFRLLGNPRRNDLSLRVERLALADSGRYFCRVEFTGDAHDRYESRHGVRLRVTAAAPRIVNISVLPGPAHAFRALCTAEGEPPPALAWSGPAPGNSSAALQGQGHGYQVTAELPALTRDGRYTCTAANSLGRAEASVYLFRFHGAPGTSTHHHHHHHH

[2] = target: T1, mouse Siglec15-his protein; experiment: SPR Biacore T200, antibody captured by anti-human IgG, antigen as analyte, 1:1 fit
Experimental: Briefly, goat anti-human IgG (GE healthcare, Cat #BR100839, Human Antibody Capture Kit) was covalently linked to a CM5 chip (carboxy methyl dextran coated chip, GE healthcare, Cat #BR-1005-30) via primary amines, using a standard amine coupling kit provided by Biacore (GE healthcare, Pittsburgh, Pa., USA). Un-reacted moieties on the biosensor surface were blocked with ethanolamine. Then, purified anti-Siglec15 antibodies of the disclosure at the concentration of 13.3 nM and an anti-Siglec15 benchmark (ch5G12, also referred to as BM, see U.S. Patent Publication No. 20190202912A1, amino acid sequences of the heavy chain and light chain set forth in SEQ ID NOs: 24 and 25, respectively) at 13.3 nM, were respectively flowed onto the chip at a flow rate of 10 μL/min. Then, serially diluted recombinant human Siglec15-his protein (in house made, amino acid sequence set forth in SEQ ID NO: 20) or cynomolgus monkey Siglec15-his protein (in house made, amino acid sequence set forth in SEQ ID NO: 21), 2-fold serial dilution in HBS-EP⁺ buffer starting at 80 nM, were respectively flown onto the chip at a flow rate of 30 μL/min. The antigen-antibody association kinetics was followed for 2 minutes and the dissociation kinetics was followed for 10 minutes. The association and dissociation curves were fit to a 1:1 Langmuir binding model using BIAcore evaluation software.
For the BIAcore test measuring the binding affinities of the modified A2A5C7E8 variants to mouse Siglec 15, mouse Siglec15-his protein (in house made with SEQ ID NO: 22) was used.

[3] = target: T2, cynomolgus monkey Siglec15-his protein (cynomolgus monkey); experiment: indirect ELISA on coated cynomolgus Siglec15-his
T2 construct: In house made; also called Cynomolgus Siglec15-his; cynomolgus Siglec15
T2 chain: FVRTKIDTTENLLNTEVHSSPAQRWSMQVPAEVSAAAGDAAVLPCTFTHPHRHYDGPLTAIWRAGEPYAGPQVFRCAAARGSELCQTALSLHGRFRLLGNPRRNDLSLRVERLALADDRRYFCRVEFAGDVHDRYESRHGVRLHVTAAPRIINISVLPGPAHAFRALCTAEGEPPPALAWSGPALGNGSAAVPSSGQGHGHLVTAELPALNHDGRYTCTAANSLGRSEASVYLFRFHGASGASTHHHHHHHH
Experimental: The anti-Siglec15 antibodies' cross-reactions to cynomolgus or mouse Siglec15 proteins were measured. Briefly, 96-well micro plates were coated with 100 μl of 2 μg/ml cynomolgus Siglec15-his protein (in house made with SEQ ID NO: 21), or 2 μg/ml mouse Siglec15-his protein (in house made with SEQ ID NO: 22) in carbonate/bicarbonate buffer (pH 9.6) for 2 hours at 37° C. ELISA plates were washed once with wash buffer (PBS+0.05% v/v Tween-20, PBST) and then blocked with 200 μl/well blocking buffer (5% w/v non-fatty milk in PBST) overnight at 4° C. Plates were washed 4 times and incubated with 100 μl serially diluted anti-Siglec15 antibodies of the disclosure or controls (starting at 66.7 nM, 5-fold serial dilution in PBST with 2.5% w/v non-fatty milk) for 40 minutes at 37° C. ELISA plates were washed 4 times again and incubated with Peroxidase AffiniPure Goat Anti-Human IgG, F(ab)₂ fragment specific (1:5000 dilution in PBST buffer, Jackson Immunoresearch, Cat #109-035-097, 100 μl/well) for 40 minutes at 37° C. After a final wash, plates were incubated with 100 μl/well TMB (Innoreagents, Cat #TMB-S-002). The reaction was stopped 4 minutes later at room temperature with 50 μl 1M H₂SO₄, and the absorbance of each well was read on a microplate reader using dual wavelength mode with 450 nm for TMB and 630 nm as the reference wavelength, then the OD (450-630) values were plotted against antibody concentration. Data was analyzed using Graphpad Prism software and EC₅₀ values were reported.

[4] = target: T3, human Siglec15 on human-siglec15-2D3-1E1 cells (human, UniProt Q6ZMC9 20-328); experiment: cell based binding FACS on human-siglec15-2D3-1E1 cells
T3 construct: whole, on cells; Transfected HEK-293 cells; also called cell surface human Siglec15
T3 sequence (looked up): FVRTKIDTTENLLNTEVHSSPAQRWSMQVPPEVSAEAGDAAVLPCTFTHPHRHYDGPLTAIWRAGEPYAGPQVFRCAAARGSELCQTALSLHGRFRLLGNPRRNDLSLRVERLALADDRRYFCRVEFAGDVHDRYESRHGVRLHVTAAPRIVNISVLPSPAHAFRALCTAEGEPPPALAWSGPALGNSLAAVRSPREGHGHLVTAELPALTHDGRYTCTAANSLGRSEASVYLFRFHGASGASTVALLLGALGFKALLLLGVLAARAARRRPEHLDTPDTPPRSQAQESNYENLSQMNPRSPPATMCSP
Experimental: The binding activities of the anti-Siglec15 antibodies to cell surface Siglec15 were tested by flow cytometry (FACS), using in-house prepared human-siglec15-2D3-1E1 cells expressing human Siglec15 (amino acid residues Met1-Pro328 of uniprot #Q6ZMC9) on cell membranes. The human-siglec15-2D3-1E1 cells were prepared by transfecting HEK-293 cells (ATCC #CRL-1573) with pCMV-T-P plasmids inserted with human Siglec15 coding sequence between EcoRI and XbaI sites, following the instruction of lipofectamine 3000 transfection reagent (Thermo Fisher). The human-siglec15-2D3-1E1 cells were harvested from cell culture flasks, washed twice and re-suspended in phosphate buffered saline (PBS) containing 2% v/v Fetal Bovine Serum (FACS buffer). 2×10⁵ cells per well in 96 well-plates were incubated in 100 μL serially diluted anti-Siglec15 antibodies or controls (starting at 66.67 nM, 5-fold serial dilution) in FACS buffer for 40 minutes on ice. […] Following a 40-minute incubation at 4° C. in dark, cells were washed three times and re-suspended in FACS buffer. Fluorescence was measured using a Becton Dickinson FACS Canto II-HTS equipment. Data was analyzed using Graphpad Prism software and EC₅₀ values were reported.

EC50 [1]: 0.994 nM
B1: B2D7H7A3C1 (antibody, V domains shown)
VH: QVQLQQSGAELVRPGTSVQMSCKAAGYTFTNYWIGWVKQRPGHGLEWVGDIHPGINYTNNNEKFRGKATLTADTSSNTAYMQLRGLTSDDSAIYYCARVDYDYDGSYIMDYWGQGTSVTVSS
VL: QIVLSQSPALLSASPGEKVTMTCRASSSVSYMYWYQQKPGSSPKPWIYATSNLTSGVPARFSGSGSGTSYSLTISRVEAEDAATYFCQQWNSKPWTFGGGSKLEIR
notes: Mouse monoclonal antibody from hybridoma; also called mouse B2D7H7A3C1

EC50 [1]: 0.651 nM
B2: B2H2H1H7 (antibody, V domains shown)
VH: B1 VH with N77S
VL: B1 VL with V3I, K102R
notes: Mouse monoclonal antibody from hybridoma; also called mouse B2H2H1H7; B2H2H1A7

EC50 [1]: 0.408 nM
B3: B2G12H3E8 (antibody, V domains shown)
VH: B1 VH with Q5K, A25V, N77S
VL: B1 VL
notes: Mouse monoclonal antibody from hybridoma; also called mouse B2G12H3E8

Kd [2]: 0.17 nM | koff [2]: 0.000931 s⁻¹ | kon [2]: 5.47e+06 M⁻¹ s⁻¹ | EC50 [3]: 0.313 nM | EC50 [4]: 0.877 nM | EC50 [1]: 0.211 nM
B4: anti-Siglec15 benchmark (ch5G12) (antibody, human IgG1, kappa, V domains shown)
VH: QVQLQQPGAELVKPGASVKMSCKASGYTFTSYWITWVIQRPGQGLEWIGDIYCGSDTMHYNEKFKNKATLTVDTSSSTAYMQLSSLTSEDSAVYYCARWWDYGSSYDYFDYWGQGTTLTVSS
VL: DIKMTQSPSSMYASLGERVTITCKASQDINSYLSWFQQKPGKSPKTLIYRANRLVDGVPSRFSGSGSGQDYSLTISSLEYEDMGIYYCLQYDEFPYTFGGGTKLEIKR
notes: ch5G12 (US 20190202912A1); also called BM; Siglec15-ch5G9

Kd [2]: 0.0875 nM | koff [2]: 0.000187 s⁻¹ | kon [2]: 2.14e+06 M⁻¹ s⁻¹ | EC50 [3]: 0.136 nM | EC50 [4]: 1.17 nM
B5: A2A5C7E8 (antibody, V domains shown)
VH: EVQLVQSGAEVKKPGESLRISCKGSGYSFTTYWISWVRQMPGKGLEWMGLIDPSDSYTNYSPSFQGHVTISTDKSISTAYLQWSSLKASDTAMYYCARGGYYGSEEDYWGQGTLVTVSS
VL: EIVLTQSPGTLSLSPGERATLSCRASQSVSSSRLAWFQQKSGQAPRLLIFDASSRATGIPDRFSGSGSGTDFTLTISRLEPEDFAVYYCQQYGSSPRTFGQGTKVEFK
notes: Fully human antibody from transgenic mouse hybridoma; also called A2A5C7E8-1

Kd [2]: 0.188 nM | koff [2]: 0.000495 s⁻¹ | kon [2]: 2.63e+06 M⁻¹ s⁻¹ | EC50 [3]: 0.15 nM | EC50 [4]: 1.47 nM
B6: A2A5C7E8-2 (antibody, human IgG1, kappa, V domains shown)
VH: B5 VH with D55E
VL: EIVLTQSPGTLSLSPGERATLSCRASQSVSSSRLAWFQQKSGQAPRLLIFDASSRATGIPDRFSGSGSGTDFTLTISRLEPEDFAVYYCQQYGSSPRTFGQGTKVEFKR
notes: Variant of A2A5C7E8 modified in VH CDR2 (X1 = E)

Kd [2]: 0.0737 nM | koff [2]: 0.000165 s⁻¹ | kon [2]: 2.24e+06 M⁻¹ s⁻¹ | EC50 [3]: 0.146 nM | EC50 [4]: 1.08 nM
B7: A2A5C7E8-3 (antibody, human IgG1, kappa, V domains shown)
VH: B5 VH with Q65K
VL: B6 VL
notes: Variant of A2A5C7E8 modified in VH CDR2 (X2 = K)
